Consider 5 sequences from patent publication US20200131515.

Experiment in all cases: SPR
A general note: SPR reads the build-up and loss of mass on a sensor chip optically.

The subject of series [1] is H-LDL particle (small dense LDL). Particulars: 5' disulfide, unit inferred.
Series [2] concerns L-LDL particle (large fluffy LDL). The note with it: 5' disulfide; unit inferred.
Series [3] relates to HDL particle (high-density lipoprotein). Particulars: 5' disulfide; 100 nM HDL, selection buffer.
The test system of series [4] is LDL particle (low-density lipoprotein, apoB-containing), commercial. The note with it: 5' disulfide.
Setting [5] is: printed kD differs from kd/ka of same row.
Where [6] appears, read: 1 nM LDL added to 1% blood serum in selection buffer.
[7] abbreviates: 1 nM LDL, selection buffer, repeat on gold chip.
[8] abbreviates: aptamer on gold chip, unit inferred.

Take “AACTACATGGTATGTGGTGAACTCACGCGCATAACCCTTTTTTCACCTGCCCTTTTAACTAATGACGTACAATGTACCC [LDL-A274]”: the Kd in series [1] (setting [5]) amounted to 0.792 nM; in series [2] it was 0.482 nM; in series [3], 8.26 nM; in series [4] (setting [6]), 0.114 nM; in series [4] (setting [7]), 0.0214 nM; in series [4] (setting [8]), 0.0773 nM.

In the case of “AACTACATGGTATGTGGTGAACTACCTCGATTTTATATTATTTCGCTTACCAACAACTGCAGAGACGTACAATGTACCC [LDL-A1]”, the Kd in series [1] (setting [5]) amounted to 1.23 nM; in series [2], 0.0327 nM; in series [3], 9.01 nM; in series [4] (setting [7]), 0.00168 nM.

As to “AACTACATGGTATGTGGTGAACTAACCTTAATTTACCCTTGTTTTATCATTTCCATCATAGCTGACGTACAATGTACCC [LDL-A12]”, the dissociation constant Kd in series [1] stood at 0.023 nM; in series [3], 7.25 nM; in series [4] (setting [6]), 0.0466 nM; in series [4] (setting [7]), 0.0108 nM; in series [4] (setting [8]), 0.0497 nM.

In the case of “AACTACATGGTATGTGGTGAACTGTCAGCTTCTTCTATATAATTCACCTTGCCTCTCGTTCCTGACGTACAATGTACCC [LDL-A2]”, the Kd in series [2] was found to be 0.0159 nM; in series [3] it was 9.69 nM; in series [4] (setting [6]) it was 0.00512 nM; in series [4] (setting [7]) it was 0.015 nM; in series [4] (setting [8]), 0.0421 nM.

With “AACTACATGGTATGTGGTGAACTAAACCATTCTTGTCTCGCATTTTTCTCTTTTATATTATTTGACGTACAATGTACCC [LDL-A38]”, the equilibrium dissociation constant (Kd) in series [1] was 0.234 nM; in series [3] it was 11.5 nM; in series [4] (setting [6]), 0.0178 nM; in series [4] (setting [7]), 0.0207 nM; in series [4] (setting [8]) it was 0.0455 nM.

One may read the Kd as the constant that tells how readily two partners part at equilibrium. Low values mean tighter binding, high ones weaker binding.
